# Laboratory results published in US20210162028A1, “Methods for Inducing Intermittent Fasting and Modulating Autophagy” (The Hong Kong Polytechnic University, priority 2019, published 2021).
# “Also recorded” adds a separate entry of the source.
# B1: N-ABD094-rhArg: recombinant human arginase fused to albumin binding domain ABD094 (SEQ ID NO: 50); engineered long-acting arginine-depleting enzyme (protein)
# chain: MHHHHHHDEAVDANSLAEAKEAANAELDSYGVSDFYKRLIDKAKTVEGVEALKDAILAALPSGSNNNNNNGSGGMSAKSRTIGIIGAPFSKGQPRGGVEEGPTVLRKAGLLEKLKEQECDVKDYGDLPFADIPNDSPFQIVKNPRSVGKASEQLAGKVAEVKKNGRISLVLGGDHSLAIGSISGHARVHPDLGVIWVDAHTDINTPLTTTSGNLHGQPVSFLLKELKGKIPDVPGFSWVTPCISAKDIVYIGLRDVDPGEHYILKTLGIKYFSMTEVDRLGIGKVMEETLSYLLGRKKRPIHLSFDVDGLDPSFTPATGTPVVGGLTYREGLYITEEIYKTGLLSGLDIMEVNPSLGKTPEEVTRTVNTAVAITLACFGLAREGNHKPIDYLNPPK
# modifications: N-ABD094-rhArg, Synthesized in the Lab
# notes: engineered long-acting arginine-depleting enzyme
# Tests used:
# Format in all cases: in vivo, mouse
# [1] = Survival of very old mice; conditions: 25-month old C57BL/6J male mice on chow diet; weekly for 30 weeks; vehicle 20%
# From the text: Specific autophagy upregulation in Caenorhabditis elegans and Drosophila extends lifespan, and drugs that induce autophagy, such as rapamycin, promote longevity in rodents (Hansen et al., Nature Reviews Molecular Cell Biology. 2018; 19:579-593). For C57BL/6J mice, over 24 months of age can be considered “very old” and survivorship drops off markedly (https://www.jax.org/news-and-insights/jax-blog/2017/november/when-are-mice-considered-old). To determine whether N-ABD094-rhArg (SEQ ID NO: 50), which induces systemic upregulation of autophagy, can increase longevity, very old C57BL/6J male mice at 25 months of age (equivalent to seventy in humans) fed an ordinary chow diet were separated into 2 groups. One group was treated once weekly with 600 U N-ABD094-rhArg (SEQ ID NO: 50) [CD Very Old (rhArg) group] for 30 weeks while another group was treated with vehicle [CD Very Old (vehicle) group]. A group of C57BL/6J male mice at 7 months of age (equivalent to early thirties in humans) treated with vehicle [CD Young (vehicle) group] served as the reference of progressive changes from mature adult to late middle age over the 30-week period.
# [2] = Insulin tolerance test (ITT); conditions: 17-month old C57BL/6J male mice on chow diet; once a week; at 13 weeks
# brown adipocyte = experiment: Transmission electron microscopy of interscapular brown adipose tissue; conditions: HFD-fed male mice, 600 U once a week, 4 weeks
# From the text: FIG. 52 illustrates the interscapular brown adipose tissue (iBAT) examined by transmission electron microscopy at Day 3 and Day 7 of a 7-day intermittent fasting cycle after N-ABD094-rhArg injection. (A) The BAT of HFD-fed male mice administered with 600 U N-ABD094-rhArg (SEQ ID NO: 50) [HFD (rhArg) group] once a week for 4 weeks, in comparison to that of HFD-fed mice treated with vehicle [HFD (vehicle) group] […] (C) As examined under 5000× magnification, autophagosome engulfed the lipid droplet and breaking into tiny particles.
# After prolonged feeding on a HFD, there was a further increase in the size (FIG. 53A) and weight of the interscapular BAT (FIG. 53B) in vehicle-treated DIO mice [HFD (vehicle) group] in comparison to the lean control mice [CD (vehicle) group], which was correlated with the presence of massive amount of enlarged white-like unilobular cells (FIG. 53A). As observed under transmission electron microscopy, brown adipocyte in mice fed with HFD [HFD (vehicle) group] had massive enlarged lipid droplets (FIG. 52A). […] Many autophagosomes were actively forming and engulfing the lipid droplets (FIG. 52B). The autolysosome was also found to be breaking down small lipid droplets, mixing with plenty of lysosomes in the structure (FIG. 52C).
# [3] = Blood pressure and heart rate by tail-cuff method; conditions: DIO C57BL/6J male mice on HFD; about 600 U once a week; measured at 12 and 27 weeks
# From the text: FIG. 9 illustrates that administration of N-ABD094-rhArg (SEQ ID NO: 50) to DIO male mice fed a HFD [HFD (rhArg) group] in FIG. 1 for 34 weeks could reduce heart mass, and lower blood pressure and heart rate to levels similar to that of the lean control mice [CD (vehicle) group]. (A) Heart mass. (B-E) Systolic and diastolic blood pressure (B, D) and heart rate (C, E) measured respectively at 12 weeks (B, C) and 27 weeks (D, E) after rhArg treatment by tail-cuff method using Noninvasive Blood Pressure Monitoring System (CODA Scientific). *P<0.05, one-way ANOVA followed by Bonferroni test. Data are expressed as mean±SEM.
# Other than liver, obesity is also commonly associated with lipid accumulation in the kidney (renal steatosis) and heart (cardiac steatosis), causing lipotoxicity and dysfunction of these organs. Indeed, there was an increase in kidney and heart mass in DIO mice treated with vehicle (FIG. 8A and FIG. 9A).
# [4] = system: p62, LC3-II/LC3-I, p70S6K1, ULK1; experiment: Western blotting of autophagy markers in brown adipose tissue; conditions: 600 U once a week, 4 weeks
# From the text: FIG. 49 illustrates the changes of relative p62 protein levels, detected by western blotting, at different days of a 7-day intermittent fasting cycle in the brown adipose tissue (BAT) of HFD-induced C57BL/6J DIO male mice administered with 600 U N-ABD094-rhArg (SEQ ID NO: 50) once a week for 4 weeks. The p62 protein is a receptor for cargo destined to be degraded by autophagy. The marked reduction in p62 levels from Day 1 to Day 3 indicated enhanced autophagy that coincided with the entry into the fasting phase. The increase in p62 levels from Day 5 to Day 7 implicated a decrease in autophagy, which coincided with the entry into the refeeding phase. *P<0.05, one-way ANOVA followed by Bonferroni test. Data are expressed as mean±SEM, n=4 for each group.
# Ratio of LC3II/LC3-I was used as a marker of autophagy and semiquantified by western blotting. Chloroquine (an autophagy inhibitor, CQ) were injected 5 hr to accumulate autophagosomes in the BAT before tissue collection. *P<0.05, one-way ANOVA followed by Bonferroni test. Data are expressed as mean±SEM, n=4 for [HFD (vehicle)] and [HFD (rhArg)] group without CQ; n=3 for CQ-treated group.
# Data are expressed as mean±SEM, n=4 each group.
# The p62, also known as SQSTMl/sequestome 1, serves as a link between LC3B and ubiquitinated substrates and is efficiently degraded by autophagy. Thus, the level of p62 proteins can be used to monitor autophagic flux. For example, autophagic suppression correlates with an increased p62 level, and similarly, autophagic activation correlates with a decreased p62 level. […] Besides, the expression level of autophagy marker LC3B was detected in presence or absence of CQ (FIG. 50). The conversion of LC3B -I to the lower migrating form, LC3B-II, is used as an indicator of cellular autophagy level. The higher the LC3B-II/LC3B-I ratio indicates the higher incidence rate of autophagy in the tissue.
# [5] = DIO male mice on HFD, Day 3 of cycle
molecule,measurement,setting,value
B1,Survival rate,[1],80%
same,Insulin sensitivity in ITT,[2],significantly improve insulin sensitivity; also recorded: effectively improve insulin sensitivity
same,"TEM of BAT, Day 3: autophagy/lipophagy",brown adipocyte,active lipophagy at Day 3
same,"TEM of BAT, Day 7: autophagosomes and autolysosomes",brown adipocyte,continuous active autophagy (lipophagy) was taking place; also recorded: autophagosome and autolysosome numbers had prominently reduced by Day 7
same,"TEM of BAT, Day 7: mitochondria",brown adipocyte; compared with Day 3,relatively large amount of mitochondria; also recorded: an increase in mitochondria number was observed
same,Blood pressure and heart rate,[3],levels similar to the age-matched lean control mice
same,p62 protein level in BAT,"[4]; DIO C57BL/6J male mice on HFD, days of the 7-day cycle",significant decrease in p62 level at Day 3 and Day 5
same,LC3-II/LC3-I ratio in BAT upon chloroquine injection,[4]; [5],dramatic increase upon injection of CQ
same,ULK1 in BAT,[4]; [5],stimulation
same,p70S6K1 in BAT,[4]; [5],significant suppression
